Patent US20260007772A1

Target: Neutrophil elastase enzyme (Neutrophil Elastase Colorimetric Drug Discovery Kit, Enzo Life Sciences) (UniProt P08246)
Test: cell-based or functional assay

UniProt P08246, sequence (P08246 30-247 limits assumed): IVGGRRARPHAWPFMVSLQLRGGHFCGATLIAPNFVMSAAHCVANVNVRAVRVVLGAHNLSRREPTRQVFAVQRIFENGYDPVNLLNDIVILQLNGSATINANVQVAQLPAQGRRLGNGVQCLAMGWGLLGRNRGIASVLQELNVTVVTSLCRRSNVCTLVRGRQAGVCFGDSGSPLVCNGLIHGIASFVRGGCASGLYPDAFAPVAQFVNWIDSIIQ

Average % Inhibition (Percent inhibition of Neutrophil Elastase in purified serum samples): 95.6%
Substance: endogenous A1AT of wild type mice (from UniProt O89094 168-257)
